B1: G/T mismatch-specific thymine DNA glycosylase (Mus musculus), P56581 (parent)
chain: MDAEAARSYSLEQVQALYSFPFQQMMAEVPNMAVTTGQQVPAVAPNMATVTEQQVPEDAPVQEPAPEAPKRRKRKPRAAEPQEPVEPKKPATSKKSGKSTKSKEKQEKITDAFKVKRKVDRFNGVSEAELLTKTLPDILTFNLDIVIIGINPGLMAAYKGHHYPGPGNHFWKCLFMSGLSEVQLNHMDDHTLPGKYGIGFTNMVERTTPGSKDLSSKEFREGGRILVQKLQKYQPRIAVFNGKCIYEIFSKEVFGVKVKNLEFGLQPHKIPDTETLCYVMPSSSARCAQFPRAQDKVHYYIKLKDLRDQLKGIERNADVQEVQYTFDLQLAQEDAKKMAVKEEKYDPGYEAAYGGAYGENPCNGEPCGIASNGLTAHSAEPRGEAAPSDVPNGQWMAQSFAEQIPSFNNCGTREQEEESHA

Variants of: B1
Conditions: with ncoa1_human NCOA1, Q15788
ncoa1_human NCOA1, Q15788, sequence (Q15788 whole entry): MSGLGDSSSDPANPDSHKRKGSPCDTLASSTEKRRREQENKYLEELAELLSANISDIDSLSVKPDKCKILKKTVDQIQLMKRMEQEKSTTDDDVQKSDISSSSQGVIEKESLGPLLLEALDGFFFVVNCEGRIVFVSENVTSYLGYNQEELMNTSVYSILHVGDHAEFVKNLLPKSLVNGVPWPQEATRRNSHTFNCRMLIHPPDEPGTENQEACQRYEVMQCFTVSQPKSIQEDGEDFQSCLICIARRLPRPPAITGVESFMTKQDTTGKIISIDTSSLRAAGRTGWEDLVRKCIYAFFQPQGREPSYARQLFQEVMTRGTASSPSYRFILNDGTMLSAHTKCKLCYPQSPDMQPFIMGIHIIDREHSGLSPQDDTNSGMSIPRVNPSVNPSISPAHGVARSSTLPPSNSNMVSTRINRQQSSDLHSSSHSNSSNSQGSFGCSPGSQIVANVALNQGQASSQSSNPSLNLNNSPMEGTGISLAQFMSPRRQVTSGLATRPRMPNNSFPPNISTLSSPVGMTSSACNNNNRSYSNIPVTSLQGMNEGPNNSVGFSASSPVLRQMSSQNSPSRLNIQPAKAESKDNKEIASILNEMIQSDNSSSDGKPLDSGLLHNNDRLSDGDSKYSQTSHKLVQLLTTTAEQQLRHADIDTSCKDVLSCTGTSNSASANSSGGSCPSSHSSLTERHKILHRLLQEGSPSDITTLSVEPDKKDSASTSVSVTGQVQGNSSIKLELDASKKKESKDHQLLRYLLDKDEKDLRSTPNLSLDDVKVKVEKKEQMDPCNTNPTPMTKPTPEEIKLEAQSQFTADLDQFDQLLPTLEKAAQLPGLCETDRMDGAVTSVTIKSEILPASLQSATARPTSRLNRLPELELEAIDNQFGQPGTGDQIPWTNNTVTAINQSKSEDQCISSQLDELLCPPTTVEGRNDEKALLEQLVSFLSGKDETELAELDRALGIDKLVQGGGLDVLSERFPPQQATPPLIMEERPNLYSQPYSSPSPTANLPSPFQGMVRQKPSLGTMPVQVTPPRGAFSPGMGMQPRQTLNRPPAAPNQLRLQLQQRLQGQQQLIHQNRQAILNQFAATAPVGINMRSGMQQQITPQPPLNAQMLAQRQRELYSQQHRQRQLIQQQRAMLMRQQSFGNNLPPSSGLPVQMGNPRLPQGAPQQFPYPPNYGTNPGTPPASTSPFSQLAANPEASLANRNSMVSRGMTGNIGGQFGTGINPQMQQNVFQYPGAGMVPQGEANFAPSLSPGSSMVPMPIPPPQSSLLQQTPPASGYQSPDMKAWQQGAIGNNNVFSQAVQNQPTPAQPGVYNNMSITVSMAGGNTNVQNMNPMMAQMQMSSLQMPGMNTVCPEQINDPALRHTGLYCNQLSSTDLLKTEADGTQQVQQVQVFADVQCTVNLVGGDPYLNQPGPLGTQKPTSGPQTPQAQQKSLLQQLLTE

Variant	effect of a mutation on the interaction
MDAEAARSYSLEQVQALYSFPFQQMMAEVPNMAVTTGQQVPAVAPNMATVTEQQVPEDAPVQEPAPEAPKRRKRKPRAAEPQEPVEPKKPATSKKSGKSTKSKEKQEKITDAFKVKRKVDRFNGVSEAELLTKTLPDILTFNLDIVIIGINPGLMAAYKGHHYPGPGNHFWKCLFMSGLSEVQLNHMDDHTLPGKYGIGFTNMVERTTPGSKDLSSKEFREGGRILVQKLQKYQPRIAVFNGKCIYEIFSKEVFGVKVKNLEFGLQPHKIPDTETLCYVMPSSSARCAQFPRAQDKVHYYIKLKDLRDQLKGIERNADVQEVQYTFDLQLAQEDAKKMAVKEEKADPGAEAAYGGAYGENPCNGEPCGIASNGLTAHSAEPRGEAAPSDVPNGQWMAQSFAEQIPSFNNCGTREQEEESHA [Y345A;Y349A]	decreasing interaction strength
MDAEAARSYSLEQVQALYSFPFQQMMAEVPNMAVTTGQQVPAVAPNMATVTEQQVPEDAPVQEPAPEAPKRRKRKPRAAEPQEPVEPKKPATSKKSGKSTKSKEKQEKITDAFKVKRKVDRFNGVSEAELLTKTLPDILTFNLDIVIIGINPGLMAAYKGHHYPGPGNHFWKCLFMSGLSEVQLNHMDDHTLPGKYGIGFTNMVERTTPGSKDLSSKEFREGGRILVQKLQKYQPRIAVFNGKCIYEIFSKEVFGVKVKNLEFGLQPHKIPDTETLCYVMPSSSARCAQFPRAQDKVHYYIKLKDLRDQLKGIERNADVQEVQYTFDLQLAQEDAKKMAVKEEKADPGAEAAAGGAAGENPCNGEPCGIASNGLTAHSAEPRGEAAPSDVPNGQWMAQSFAEQIPSFNNCGTREQEEESHA [Y345A;Y349A;Y353A;Y357A]	decreasing interaction strength
MDAEAARSYSLEQVQALYSFPFQQMMAEVPNMAVTTGQQVPAVAPNMATVTEQQVPEDAPVQEPAPEAPKRRKRKPRAAEPQEPVEPKKPATSKKSGKSTKSKEKQEKITDAFKVKRKVDRFNGVSEAELLTKTLPDILTFNLDIVIIGINPGLMAAYKGHHYPGPGNHFWKCLFMSGLSEVQLNHMDDHTLPGKYGIGFTNMVERTTPGSKDLSSKEFREGGRILVQKLQKYQPRIAVFNGKCIYEIFSKEVFGVKVKNLEFGLQPHKIPDTETLCYVMPSSSARCAQFPRAQDKVHYYIKLKDLRDQLKGIERNADVQEVQYTFDLQLAQEDAKKMAVKEEKYDPGYEAAAGGAAGENPCNGEPCGIASNGLTAHSAEPRGEAAPSDVPNGQWMAQSFAEQIPSFNNCGTREQEEESHA [Y353A;Y357A]	decreasing interaction strength

Variants of: B1
Conditions: with ncoa1_human NCOA1, Q15788
Remark: another data set of the same source

Variant	effect of a mutation on the interaction
MDAEAARSYSLEQVQALYSFPFQQMMAEVPNMAVTTGQQVPAVAPNMATVTEQQVPEDAPVQEPAPEAPKRRKRKPRAAEPQEPVEPKKPATSKKSGKSTKSKEKQEKITDAFKVKRKVDRFNGVSEAELLTKTLPDILTFNLAIAAIGINPGLMAAYKGHHYPGPGNHFWKCLFMSGLSEVQLNHMDDHTLPGKYGIGFTNMVERTTPGSKDLSSKEFREGGRILVQKLQKYQPRIAVFNGKCIYEIFSKEVFGVKVKNLEFGLQPHKIPDTETLCYVMPSSSARCAQFPRAQDKVHYYIKLKDLRDQLKGIERNADVQEVQYTFDLQLAQEDAKKMAVKEEKYDPGYEAAYGGAYGENPCNGEPCGIASNGLTAHSAEPRGEAAPSDVPNGQWMAQSFAEQIPSFNNCGTREQEEESHA [D144A;V146A;I147A]	with no effect
MDAEAARSYSLEQVQALYSFPFQQMMAEVPNMAVTTGQQVPAVAPNMATVTEQQVPEDAPVQEPAPEAPKRRKRKPRAAEPQEPVEPKKPATSKKSGKSTKSKEKQEKITDAFKVKRKVDRFNGVSEAELLTKTLPDILTFNLDIVIIGIAPGLMAAYKGHHYPGPGNHFWKCLFMSGLSEVQLNHMDDHTLPGKYGIGFTNMVERTTPGSKDLSSKEFREGGRILVQKLQKYQPRIAVFNGKCIYEIFSKEVFGVKVKNLEFGLQPHKIPDTETLCYVMPSSSARCAQFPRAQDKVHYYIKLKDLRDQLKGIERNADVQEVQYTFDLQLAQEDAKKMAVKEEKYDPGYEAAYGGAYGENPCNGEPCGIASNGLTAHSAEPRGEAAPSDVPNGQWMAQSFAEQIPSFNNCGTREQEEESHA [N151A]	with no effect
MDAEAARSYSLEQVQALYSFPFQQMMAEVPNMAVTTGQQVPAVAPNMATVTEQQVPEDAPVQEPAPEAPKRRKRKPRAAEPQEPVEPKKPATSKKSGKSTKSKEKQEKITDAFKVKRKVDRFNGVSEAELLTKTLPDILTFNLDIVIIGINPGLMAAYKGHHYPGPGNHFWKCLFMSGLSEVQLNHMDDHTLPGKYGIGFTNMVERTTPGSKDLSSKEFREGGRILVQKLQKYQPRIAVFNGKCIYEIFSKEVFGVKVKNLEFGLQPHKIPDTETLCYVMPSSSARCAQFPRAQDKVHYYIKLKDLRDQLKGIERNADVQEVQYTFDLQLAQEDAKKMAVKEEKFDPGFEAAYGGAYGENPCNGEPCGIASNGLTAHSAEPRGEAAPSDVPNGQWMAQSFAEQIPSFNNCGTREQEEESHA [Y345F;Y349F]	decreasing interaction strength
MDAEAARSYSLEQVQALYSFPFQQMMAEVPNMAVTTGQQVPAVAPNMATVTEQQVPEDAPVQEPAPEAPKRRKRKPRAAEPQEPVEPKKPATSKKSGKSTKSKEKQEKITDAFKVKRKVDRFNGVSEAELLTKTLPDILTFNLDIVIIGINPGLMAAYKGHHYPGPGNHFWKCLFMSGLSEVQLNHMDDHTLPGKYGIGFTNMVERTTPGSKDLSSKEFREGGRILVQKLQKYQPRIAVFNGKCIYEIFSKEVFGVKVKNLEFGLQPHKIPDTETLCYVMPSSSARCAQFPRAQDKVHYYIKLKDLRDQLKGIERNADVQEVQYTFDLQLAQEDAKKMAVKEEKFDPGFEAAFGGAFGENPCNGEPCGIASNGLTAHSAEPRGEAAPSDVPNGQWMAQSFAEQIPSFNNCGTREQEEESHA [Y345F;Y349F;Y353F;Y357F]	decreasing interaction strength
MDAEAARSYSLEQVQALYSFPFQQMMAEVPNMAVTTGQQVPAVAPNMATVTEQQVPEDAPVQEPAPEAPKRRKRKPRAAEPQEPVEPKKPATSKKSGKSTKSKEKQEKITDAFKVKRKVDRFNGVSEAELLTKTLPDILTFNLDIVIIGINPGLMAAYKGHHYPGPGNHFWKCLFMSGLSEVQLNHMDDHTLPGKYGIGFTNMVERTTPGSKDLSSKEFREGGRILVQKLQKYQPRIAVFNGKCIYEIFSKEVFGVKVKNLEFGLQPHKIPDTETLCYVMPSSSARCAQFPRAQDKVHYYIKLKDLRDQLKGIERNADVQEVQYTFDLQLAQEDAKKMAVKEEKYDPGYEAAFGGAFGENPCNGEPCGIASNGLTAHSAEPRGEAAPSDVPNGQWMAQSFAEQIPSFNNCGTREQEEESHA [Y353F;Y357F]	decreasing interaction strength
